T1: human CTLA4 (human, UniProt P16410 36-161, limits assumed)
T1 sequence (looked up): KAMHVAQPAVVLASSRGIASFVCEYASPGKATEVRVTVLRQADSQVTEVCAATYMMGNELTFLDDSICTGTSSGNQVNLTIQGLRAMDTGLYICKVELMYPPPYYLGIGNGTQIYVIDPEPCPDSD

T2: Recombinant human CTLA4/His (human, UniProt P16410 36-162, limits assumed)
T2 construct: not shown: His tag
T2 sequence (looked up): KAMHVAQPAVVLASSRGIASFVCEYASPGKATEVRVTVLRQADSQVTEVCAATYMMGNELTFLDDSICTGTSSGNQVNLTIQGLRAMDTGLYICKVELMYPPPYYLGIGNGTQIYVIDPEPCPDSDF

B1: D5 (antibody, V domains shown)
VH: QVQLQQSGPGLVKPSQTLSLTCAISGDSVSSNSAAWNWIRQSPSRGLEWLGRTYYRSKWYNDYAVSVKSRITINPDTSKNQFSLQLNSVTPEDTAVYYCAMHSGYRNYGMDVWGQGTTVTVSS
VL: QSVVTQPPSVSGAPGQRVTISCTGSSSNIGAGYDVHWYQQLPGTAPKLLIYGNSNRPSGVPDRFSGSKSGTSASLAITGLQAEDEADYYCQSYDSSLSGAVVFGGGTKLTVL
B2: A7 (antibody, V domains shown)
VH: QMQLVQSGAEVKKPGASVKVSCKASGGTFSSYAISWVRQAPGQGLEWMGGIIPIFGTANYAQKFQGRVTITADESTSTAYMELSSLRSEDTAVYYCAREIGSYSSGWYRAFDIWGQGTMVTVSS
VL: DIVMTQSPSTLSASVGDRVTITCRASQSISSWLAWYQQKPGKAPQLLIYKASNLQSGVPSRFSGSGSVTEFSLTISSLLPEDFATYYCQQYSRPPWTFGQGTKVEIK
B3: G3 (antibody, V domains shown)
VH: QVQLVQSGAEVKKPGASVKVSCKASGYTFTSYYMHWVRQAPGQGLEWMGIINPSGGSTSYAQKFQGRVTMTRDTSTSTVYMELSGLRSEDTAVYYCARYEHDYDSSKATTGYFDYWGQGTLVTVSS
VL: AIQLTQSPDSLAVSLGERATINCKSSQSILYRSNNKNYLAWYQQKPGQPPKLLIYWASTRESGVPDRFSGSGSGTDFTLTISSLQPEDFATYYCQQADRFPITFGQGTRLEIK
B4: G5 (antibody, V domains shown)
VH: QVQLQQSGPGLVKPSQTLSLTCAISGDSVSSNSAAWNWIRQSPSRGLEWLGRTYYRSKWYNDYAVSVKSRITINPDTSKNQFSLQLNSVTPEDTAVYYCARDRWELPFDYWGQGTTVTVSS
VL: QSVVTQPPSVSAASGQKVIISCSGSNSNIVNNYVSWYQQLPGAAPKVLIYANNKRPSGIPDRFSGSKSGTSAFLAITGLQTGDEADYYCGTWDGSLDVDVFGGGTKLTVL
B5: G12 (antibody, V domains shown)
VH: EVQLVESGAEVKKPGASVKVSCKASGYTFTSYGISWVRQAPGQGLEWMGWISAYNGNTNYAQKLQGRVTMTTDTSTSTAYMELRSLRSDDTAVYYCARGPGILTGYYFDYWGQGTLVTVSS
VL: EIVMTQSPSSLSASVGDRVTITCRASQGINYHLAWYQQKPGKAPKLLIYAASALQSGVPSRFSGTGSGTEFTLTISSLQPEDFATYYCQQFNTYPLTFGGGTKLEIK
B6: E8 (antibody, V domains shown)
VH: QVQLVQSGAEVKKPGASVKVSCEASGYTFTNYYIHWLRQAPGQGLEWMGIINPSGGSTTYAQKFQGRITMTRDTSTNTLYMELSSLRSEDTAIYYCARRDCRGPSCYFAYWGQGTTVTVSS
VL: DIVMTQSPSSLSASVGDRVTITCRASQSISSYLNWYQQKPGKAPKLLIYAASSLQSGVPPRFSGSGSGTEFTLTISSLQPEDFATYYCQQANSFPPTFGQGTKVDIK
notes: also called antibody E8
B7: F3 (antibody, V domains shown)
VH: QMQLVQSGAEVKKPGASVTVSCKASGYTFTNSYIHWVRQAPGQGLEWVGRLIPSSGYTIFSQKLQGRVSMTRDTSMSTHYLTLSHLRPEDTAVYYCATDGGNYNLDFWGQGTLVTVSS
VL: QPVLTQPPSVSGSPGQSVTISCTGTSSDVGGYNYVSWYQQHPGKAPKLMIYDVSSRPSGVSNRFSGSKSDNTASLTISGLQAEDEADYYCSSYTSSSPYVFGTGTKVTVL
B8: A4 (antibody, V domains shown)
VH: QVQLVESGGGLIQPGGSLRLSCAASGFSVSNNYMNWVRQAPGKGLEWVSVIYRGGSTYYADSVKGRFTISRDNSKNTLYLQMNSLRTEDTAVYYCLREGGTSGDYVNDWGQGTLVTVSS
VL: QSVVTQPPSVSGAPGQRVTISCTGSSSNIGAGYDVHWYQQLPGTAPKLLIYGNKNRPSGVPDRFSGSKSGTSASLAITGLQAEDEADYYCQAYDSSLSVVFGGGTKLTVL
B9: F6 (antibody, V domains shown)
VH: EVQLVESGGGFVKPGRSLRLSCTASGFTFGDYGMSWFRQAPGKGLEWVGFIRSKAYGGTTDYAASVKGRFTISRDDSKSFAYLQMNSLKTEDTAVYYCTRGHYSASIWGQGTLVTVSS
VL: SYELMQPPSVSVAPGKTARITCGGNNIGSKSVHWYQQRPDQAPVLVIYSDNDRPSGIPERFSGSSSGHTATLTISRVEAGDEADYFCQVWDSNKNEWVFGGGTKLTVL
B10: F7 (antibody, V domains shown)
VH: QVQLVQSGAEVKKPGASVKVSCKASGYAFDGHYMHWVRQAPGQRLEWMGWVDPHSGATNYAQNFQGGVTMTRDTSINTVYMELSSLKSDDTAVYYCARDFYDTSAKSGAFDIWGQGTMVTVSS
VL: AIQLTQSPSSVSASVGDRVTITCRASQGISSWLAWYQQKPGKAPKLLIYAASSLQSGVPSRFSGSGSGTDFTLTISSLQPEDFATYYCQQVNSFPWAFGQGTKVEIK
notes: captured by anti-human Fc antibody in SPR, so it has a human Fc; also called anti-CTLA4 antibody F7
B11: A12 (antibody, V domains shown)
VH: QVQLVESGGGLVQPGGSLRLSCAASGFTFSNYAMNWVRQTPGKGLEWVSVNYNDGFGTFNGYYADSVKGRFIISRDNSKNTLYLQMNSLRVDDTAVYYCARDSGVAGPYYFDNWGQGTLVTVSS
VL: AIQLTQSPSTLSASVGDRVTITCRASQSISSWLAWYQQKPGKAPKLLIYKASSLESGVPSRFSGSGSGTEFTLTISSLQPDDFATYYCQQYNSSPLTFGGGTKLEIK
B12: C2 (antibody, V domains shown)
VH: QVQLVQSGAEVKKPGASVKVSCKASGYTFTTHYIHWVRQAPGQGLEWMAIINPNDGVKVYAQKFKGRLTVASDTSATTVYMDLSGLTSDDTAVYYCGREQHGGHHDYWGQGTLVTVSS
VL: QAGLTQPASVSGSPGQSITISCTGTSSDVGGYNYVSWYQQHPGKAPKLMIYDVTNRPSGVSNRFSGSKSGNTASLTISGLQAEDEADYYCKSYTSSSTPYVFGTGTKVTVL
B13: B6 (antibody, V domains shown)
VH: QVQLVQSGAEVKKPGATVKVSCTASGFPFRNYAMHWVRQAPGQRLEWLGWIDAGNGNTKYSQTFHGRVTITRDTSASTAYMELSSLRSEDTAVYYCARDLLWPYLVTSGGAFDIWGQGTMVTVSS
VL: SYELMQPPSTSGTPGQRVTISCSGSSSNIGSHIVNWYQQFPGAAPQLLIYNDDQRPSGVPDRFSGSKSGASASLAISGLQSEDEAHYYCSAWDDILKGPVFGGGTKLTVL
B14: F5 (antibody, V domains shown)
VH: EVQLVQSGTEVKKPGSSVKVSCKASGGSFSNYAISWVRQAPGQGLEWMGRIIPILGIANYAQKFQGRVTITADKSTSTAYMELSSLGSEDTAVYYCARESGSYLDPWGQGTLVTVSS
VL: DIVMTQSPDSLAVSLGERATINCKSSQSVLYSPNNKNYLTWYQQKPGQPPKLLMYWASTRESGVPDRFSASGSGTDFTLTISSLQAEDVAVYYCQQSRSGPYTFGQGTKVEIK
B15: G2 (antibody, V domains shown)
VH: QVQLVESGGGLIQPGGSLRLSCAASGFTVSSAYMSWVRQAPGKGLEWVSVIYRGGTTYYADSVKGRFTISRDNSKNTLYLQMNSLRAEDTAVYYCRGEGGNSGDYFDYWGQGTTVTVSS
VL: NFMLTQPASVSGSPGQSITISCTGTSSDVGGYNFVSWYQQHPGKAPKLMIYDVSKRPSGVSNRFSGSKSGNTASLTISGLQAEDEADYYCSSYTSTNTLDVLFGGGTKLTVL
B16: G1 (antibody, V domains shown)
VH: QVQLVQSGAEVKKPGASVKVSCKTSGNTFTNYYMHWVRQAPGQGLEWMGIMNPSGGSTSYAQKFQGRVTMTRDKSTSTVYMELSSLTSEDTAVYYCARDLFPHIYGNYYGMDIWGQGTTVTVSS
VL: QSVVTQPPSVSAAPGQNVTISCSGSSSNIGNNYVSWYQQLPGTAPKLLIYDNNRRASGIPDRFSGSKSGTSATLGITGLQTGDEADYYCGTWDRSLTTDWVFGGGTKLTVL
B17: F1 (antibody, V domains shown)
VH: EVQLVQSGAEVKKPGASVKVSCKASGYTFTSYGISWVRQAPGQGLEWMGWISAYNGNTNYAQKLQGRVTMTTDTSTSTAYMELRSLRSDDTAVYYCARVGYGGYFDYWGQGTLVTVSS
VL: SYELMQPPSVSKGLRQTATLTCTGNSNNVGNQGADWLQQHQGHPPKLLSYRNNDRPSGISERFSASRSGSTASLTITGLQPEDEADYYCLAWDSSLSAWVFGGGTKVTVL
B18: A2 (antibody, V domains shown)
VH: QMQLVQSGAEVKMPGSSVRISCKASGGSFTTHFINWVRQAPGQGLEWMGWMNPNTGNTGYAERFQGRVTLTRDTSISTAYLELSSLRSDDTAVYYCARNPAESGRFDPWGQGTLVTVSS
VL: QSALTQPPSASGSPGRSVTISCTGTSNNVGGYNYVSWYQQHPGKAPKLMIYEVTKRPSGVPDRFSGSKSGNTASLTVSGLQAEDEADYYCGTWDGSLNAYVFGTGTKVTVL

Legend:
human CTLA4 [1] = molecular target: T1, human CTLA4; experiment: selection of human antibodies; method not described
human CTLA4 [2] = molecular target: T1, human CTLA4; experiment: SPR (BiaCore)
[3] = molecular target: T2, Recombinant human CTLA4/His; experiment: SPR (Biacore), antibody captured on anti-human Fc, CTLA4/His as analyte, 1:1 model
Method: This example illustrates binding affinities of exemplary anti-CTLA4 antibodies disclosed herein. Affinities were determined using surface plasmon resonance (Biacore). Briefly, Anti-human Fc antibody (GE, BR-1008-39) was immobilized on CM5 sensor chip to approximately 1000 RU using standard NHS/EDC coupling methodology. Antibodies (about 10 μg/ml) were captured for 60 s at a flow rate 10 μl/min Recombinant human CTLA4/His was serially diluted in running buffer (HBS-EP). All measurements were conducted with a flow rate of 30 μL/min Surfaces were regenerated with 3M MgCl₂ for 60 s. A 1:1 (Langmuir) binding model was used to fit the data.

Binder	binding result (human CTLA4 [1])	other results
B1	binds	–
B2	binds	–
B3	binds	–
B4	binds	–
B5	binds	–
B6	–	Kd (human CTLA4 [2]): 58.9 nM; koff (human CTLA4 [2]): 0.00488 s⁻¹; kon (human CTLA4 [2]): 82900 M⁻¹ s⁻¹
B7	binds	–
B8	binds	–
B9	binds	–
B10	–	Kd [3]: 0.738 nM; koff [3]: 0.000217 s⁻¹; kon [3]: 294000 M⁻¹ s⁻¹
B11	binds	–
B12	binds	–
B13	binds	–
B14	binds	–
B15	binds	–
B16	binds	–
B17	binds	–
B18	binds	–
